Laboratory results published in patent publication US20220313845A1 (MYTHIC THERAPEUTICS, published 2022).

T1: recombinant human DLL3 extracellular domain (R&D Systems, Cat #9749-DL) (human, UniProt Q9NYJ7 27-492)
T1 construct: Bought protein; also called soluble recombinant human DLL3 extracellular domain
T1 sequence: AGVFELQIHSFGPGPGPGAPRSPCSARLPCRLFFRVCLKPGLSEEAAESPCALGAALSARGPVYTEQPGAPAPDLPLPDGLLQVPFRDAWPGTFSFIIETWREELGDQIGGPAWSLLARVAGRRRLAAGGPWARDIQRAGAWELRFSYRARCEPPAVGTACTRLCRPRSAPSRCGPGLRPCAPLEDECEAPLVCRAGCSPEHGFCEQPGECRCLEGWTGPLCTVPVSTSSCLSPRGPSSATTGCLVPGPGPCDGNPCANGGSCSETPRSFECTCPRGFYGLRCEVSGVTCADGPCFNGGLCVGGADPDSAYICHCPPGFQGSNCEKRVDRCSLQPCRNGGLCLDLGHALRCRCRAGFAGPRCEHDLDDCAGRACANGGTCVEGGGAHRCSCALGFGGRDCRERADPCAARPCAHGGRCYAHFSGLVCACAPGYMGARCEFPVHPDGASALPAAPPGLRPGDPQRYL

T2: DLL3 on NCI-H82 cells (human, UniProt Q9NYJ7 27-618)
T2 construct: Endogenous DLL3 of NCI-H82 (DLL3+) cells; also called cell surface DLL3
T2 sequence: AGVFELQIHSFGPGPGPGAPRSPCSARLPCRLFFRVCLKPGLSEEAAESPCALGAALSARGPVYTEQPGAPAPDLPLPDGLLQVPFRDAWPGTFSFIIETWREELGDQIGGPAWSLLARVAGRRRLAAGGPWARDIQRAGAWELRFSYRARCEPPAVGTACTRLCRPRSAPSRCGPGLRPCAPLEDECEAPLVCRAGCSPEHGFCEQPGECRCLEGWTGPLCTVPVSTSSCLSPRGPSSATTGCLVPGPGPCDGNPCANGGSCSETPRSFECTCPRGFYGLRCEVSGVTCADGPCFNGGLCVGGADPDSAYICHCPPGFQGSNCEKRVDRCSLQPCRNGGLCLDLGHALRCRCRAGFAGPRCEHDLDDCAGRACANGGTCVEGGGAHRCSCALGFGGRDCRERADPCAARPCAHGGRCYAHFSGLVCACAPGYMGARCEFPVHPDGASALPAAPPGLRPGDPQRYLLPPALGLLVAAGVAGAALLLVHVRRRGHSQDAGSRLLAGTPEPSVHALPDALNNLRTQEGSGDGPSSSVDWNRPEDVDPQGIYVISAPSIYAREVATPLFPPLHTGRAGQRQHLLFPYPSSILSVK


Experiments:
[1] = molecular target: T1, recombinant human DLL3 extracellular …; test: phage ELISA after three rounds of panning on biotinylated recombinant human DLL3
Excerpt: Multiple ABPC display systems, including phage display systems and those with ABPCs based on VH domains, have been described in the literature and can be used as a template for selection of pH engineered ABPCs using panning (Scroter C (2015) “A generic approach to engineer antibody pH switches using combinatorial histidine scanning libraries and yeast display” mAbs, 7:1, 138-151; Bonvin P (2015) “De novo isolation of antibodies with pH-dependent binding properties” mAbs, 7:2, 294-302; Traxlmayr P (2014) “Construction of pH-sensitive Her2-binding IgG1-Fc by directed evolution” Biotechnology Journal 9(8): 1013-1022; Gera N (2012) “Design of pH sensitive binding proteins from the hyperthermophilic Sso7 d scaffold” PLOS ONE 7 (11) e48928). pH engineered anti-DLL3 variants were selected by screening a proprietary humanized VH domain phage display library. Humanized VH library was screened against soluble recombinant human DLL3 extracellular domain (R&D Systems, Cat #9749-DL) in three rounds of selections with successively lower concentrations to isolate pH dependent anti-DLL3 VH domains. Briefly, the library was depleted for non-specific binders by incubating with Dynal M-280 streptavidin beads, bound antibodies were separated via a magnet and supernatant was collected for positive selection with human DLL3. Depleted library was further incubated with biotinylated recombinant human DLL3 at pH 7.4 for 1-3 hours at room temperature. Dynal streptavidin beads were added to the mixture to capture human DLL3 bound antibodies and washed 3× with a pH 7.4 buffer. Bound antibodies were eluted from beads using 0.1 M glycine pH 2.7 which was then neutralized with 1M Tris pH 7.4.

DLL3 on NCI-H82 cells = molecular target: T2, DLL3 on NCI-H82 cells; test: flow cytometry titration on NCI-H82 cells, Alexa Fluor 488 anti-human IgG; Example 37 calls the fitted value a dissociation constant KD
Protocol: FIGS. 20a-c: Characterization of binding affinity for anti-DLL3 mAbs. Anti-DLL3 mAbs were assayed for their binding to NCI-H82 cells.
Binding affinity of selected anti-DLL3 pH engineered antibody variants from Examples 9-13 were measured on NCI-H82 cells. 100,000 cells per well were resuspended in 900 μL FC buffer in a 96 well deep well plate. Rovalpituzumab and pH engineered antibody variants were serially diluted at a 1:3 dilution. 100 μL of diluted antibody was added to each well with final concentration ranging from […] and incubated for 2 hours at 4° C. Post incubation, the cells were spun at 2000 rpm for 2 min and supernatant was discarded. Cells were washed twice with 500 μL of ice-cold FC buffer and resuspended with 100 μL of FC buffer. The cells were then transferred from the deep well plate to 96 well round bottom plate, spun at 2000 rpm for 2 min and incubated with 100 μL of 10 μg/mL Alexa Fluor 488 conjugated goat anti-human IgG secondary antibody (ThermoFisher Scientific, A11013) for 30 min. Post incubation, cells were washed with FC buffer and resuspended in 100 μL of FC buffer to read on a BD Accuri C6 flow cytometer. Binding affinity was measured as a dissociation constant KD by GraphPad Prism assuming Michaelis-Menten binding kinetics. […]

| Binder | binding result [1] | KD (DLL3 on NCI-H82 cells) |
| --- | --- | --- |
| SEQ ID NO 608 (other, also called Humanized VH variant #3) VH: EVQLVESGGGLVQPGGSLRLSCAASGFNISYYSIGWVRRAPGKGEELVARIYPTNGYTRYADSVKGRFTISADTSKNTAYLQMNSLRAEDTAVYYCARYHHSEYSDYYGYYSEYGFDYSGQGTLVTVRS | binds | – |
| SEQ ID NO 613 (other, also called Humanized VH variant #8) VH: EVQLVESGGGLVQPGGSLRLSCAASGFNIEYESIGWVRRAPGKGEELVARIYPTNGYTRYADSVKGRFTISADTSKNTAYLQMNSLRAEDTAVYYCARSEYSHYSGSHHYYALDYSGQGTLVTVSS | binds | – |
| SEQ ID NO 619 (other, also called Humanized VH variant #14) VH: EVQLVESGGGLVQPGGSLRLSCAASGFNISHYSIGWVRHAPGKGEELVARIYPTNGYTRYADSVKGRFTISADTSKNTAYLQMNSLRAEDTAVYYCARHHYSHYDGHSHYYGLDYSGQGTLVTVSS | binds | – |
| SEQ ID NO 620 (other, also called Humanized VH variant #15) VH: EVQLVESGGGLVQPGGSLRLSCAASGFNIYDHSIGWVRRAPGKGEELVARIYPTNGYTRYADSVKGRFTISADTSKNTAYLQMNSLRAEDTAVYYCARSSYSGYYGSHHYYALDYSGQGTLVTVSS | binds | – |
| SEQ ID NO 609 (other, also called Humanized VH variant #4) VH: EVQLVESGGGLVQPGGSLRLSCAASGFNIYSYSIGWVRRAPGKGEELVARIYPTNGYTRYADSVKGRFTISADTSKNTAYLQMNSLRAEDTAVYYCAREHYHGYYDGAHYYALDYSGQGTLVTVSS | binds | – |
| SEQ ID NO 618 (other, also called Humanized VH variant #13) VH: EVQLVESGGGLVQPGGSLRLSCAASGFNISEESIGWVRRAPGKGEELVARIYPTNGYTRYADSVKGRFTISADTSKNTAYLQMNSLRAEDTAVYYCARSYYAHYSAGYYYYALDYSGQGTLVTVSS | binds | – |
| SEQ ID NO 607 (other, also called Humanized VH variant #2) VH: EVQLVESGGGLVQPGGSLRLSCAASGFNIYSESIGWVRRAPGKGEELVARIYPTNGYTRYADSVKGRFTISADTSKNTAYLQMNSLRAEDTAVYYCARSYYSHYDGHYHYYGLDYSGQGTLVTVSS | binds | – |
| SEQ ID NO 611 (other, also called Humanized VH variant #6) VH: EVQLVESGGGLVQPGGSLRLSCAASGFNIEHYSIGWVRRAPGKGEELVARIYPTNGYTRYADSVKGRFTISADTSKNTAYLQMNSLRAEDTAVYYCARHHYYGYHSGYHHYAIDYSGQGTLVTVSS | binds | – |

The remaining lines, values ahead:

| binding result [1] | KD (DLL3 on NCI-H82 cells) | Binder |
| --- | --- | --- |
| – | 8 pM | rovalpituzumab (antibody, V domains shown, IgG expressed in Expi293; the entries called heavy and light chain are variable domains; also called MYT0638) VH: QVQLVQSGAEVKKPGASVKVSCKASGYTFTNYGMNWVRQAPGQGLEWMGWINTYTGEPTYADDFKGRVTMTTDTSTSTAYMELRSLRSDDTAVYYCARIGDSSPSDYWGQGTLVTVSS VL: EIVMTQSPATLSVSPGERATLSCKASQSVSNDVVWYQQKPGQAPRLLIYYASNRYTGIPARFSGSGSGTEFTLTISSLQSEDFAVYYCQQDYTSPWTFGQGTKLEIK |
| binds | – | SEQ ID NO 614 (other, also called Humanized VH variant #9) VH: EVQLVESGGGLVQPGGSLRLSCAASGFNISEHSIGWVRRAPGKGEELVARIYPTNGYTRYADSVKGRFTISADTSKNTAYLQMNSLRAEDTAVYYCARSYYHGYSHGHHYYAIDYSGQGTLVTVSS |
| binds | – | SEQ ID NO 610 (other, also called Humanized VH variant #5) VH: EVQLVESGGGLVQPGGSLRLSCAASGFNIEYYSIGWVRRAPGKGEELVARIYPTNGYTRYADSVKGRFTISADTSKNTAYLQMNSLRAEDTAVYYCAREYYSYHDEYEYDYALDYSGQGTLVTVSS |
| binds | – | SEQ ID NO 612 (other, also called Humanized VH variant #7) VH: EVQLVESGGGLVQPGGSLRLSCAASGFNISSSDIGWVRRAPGKGEELVARIYPTNGYTRYADSVKGRFTISADTSKNTAYLQMNSLRAEDTAVYYCARYYYYDDDGYYYEHAIDYSGQGTLVTVSS |
| binds | – | SEQ ID NO 606 (other, also called Humanized VH variant #1) VH: EVQLVESGGGLVQPGGSLRLSCAASGFNISYYYIGWVRRAPGKGEELVARIYPTNGYTRYADSVKGRFTISADTSKNTAYLQMNSLRAEDTAVYYCARAYGDSDHYSEAIDYSGQGTLVTVSS |
| binds | – | SEQ ID NO 615 (other, also called Humanized VH variant #10) VH: EVQLVESGGGLVQPGGSLRLSCAASGFNIHSYYIGWVRRAPGKGEELVARIYPTNGYTRYADSVKGRFTISADTSKNTAYLQMNSLRAEDTAVYYCARGYYGHEYDYHYDYYGGGFDYSGQGTLVTVSS |
| binds | – | SEQ ID NO 616 (other, also called Humanized VH variant #11) VH: EVQLVESGGGLVQPGGSLRLSCAASGFNIHYEEIGWVRRAPGKGEELVARIYPTNGYTRYADSVKGRFTISADTSKNTAYLQMNSLRAEDTAVYYCARYSYYYHYGGGMDYSGQGTLVTVSS |
